Laboratory results taken from patent US20190284266A1 (H LUNDBECK A S, published 2019).

Molecular target: T1, hyperphosphorylated (pathological) tau from human Alzheimer's disease brain, phosphorylated at serine 396 (human, UniProt P10636 2-758, phosphoserine at 396; hyperphosphorylated at further sites that are not listed)
T1 construct: Brain-derived material (sections, S1, S1p and sarkosyl-insoluble P3 fractions, PBS extracts), a mixture of isoforms and aggregates; also called AD-P3; AD-P3 antigens
T1 sequence (P10636 other isoform, or with tags, fused parts or gaps limits assumed): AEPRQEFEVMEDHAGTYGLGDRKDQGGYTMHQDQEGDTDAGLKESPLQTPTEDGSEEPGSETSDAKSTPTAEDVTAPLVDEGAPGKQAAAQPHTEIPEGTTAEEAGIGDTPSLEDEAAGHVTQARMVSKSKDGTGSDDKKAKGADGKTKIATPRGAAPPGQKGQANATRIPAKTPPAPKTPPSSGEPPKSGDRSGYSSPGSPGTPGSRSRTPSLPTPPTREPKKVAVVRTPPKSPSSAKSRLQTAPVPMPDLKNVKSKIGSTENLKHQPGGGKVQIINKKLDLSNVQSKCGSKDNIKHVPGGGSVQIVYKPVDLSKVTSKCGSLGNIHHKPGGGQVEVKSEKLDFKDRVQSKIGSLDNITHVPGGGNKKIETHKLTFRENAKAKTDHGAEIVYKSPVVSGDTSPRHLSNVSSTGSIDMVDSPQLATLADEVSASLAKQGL
Assay: binding of pathological versus non-pathological tau, brain material (Table 5)

Binder | AD/ctrl (ratio of binding to AD brain tau over control brain tau) [fold]
HJ8.5 (antibody, V domains shown) VH: EVKVEESGGGLVQPGGSMKLSCVVSGFTFSNYWVNWVRQSPEKGLEWVAQIRLKSDNYATHYEESVKGRFTISRDDSKSSVYLQMNNLRAEDSGIYYCTNWEDYWGQGTTLTVSS VL: DIVLTQSPASLAVSLGQRATISCRASQSVSTSRYSYIHWYQQKPGQPPKLLIKYASNLESGVPARFSGSGSGTDFTLNIHPLEEEDAATYYCHHSWEIPLTFGAGTKLELK | 3
IPN002 (antibody, V domains shown) VH: EVHLVESGGALVKPGGSLKLSCAASGFSFSKYGMSWVRQTPDKRLEWVATISSSGSRTYYPDSVKGQFTISRDNAKNTLYLQMSSLKSEDTAMYYCSISWDGAMDYWGQGTSVTVSS VL: DVLMTQTPLSLPVSLGDQASISCKSSQSIVHSNGNTYLEWYLQKPGQSPKLLVYKVSNRFSGVPDRFSGSGSGTDFTLKISRVEAEDLGTYYCFQGSLVPWAFGGGTKLEIK | 3
